Experimental data: publication PMC4613909

Target: Artemia salina 40S ribosomal subunit (Artemia salina)
Experiment: iRIA (in vitro Ribosomes Interaction Assay, microwell solid-phase binding); 40S immobilised, labeled 60S displaced by 5-fold unlabeled 60S; room temperature, 10 minutes

percent displacement of labeled 60S by 5-fold unlabeled 60S: 50%
Substance: Artemia salina 60S ribosomal subunit (mature) (complex)
